# According to publication PMC6355928:
# Target: Rheb (UniProt Q15382)
# Experiment: co-immunoprecipitation, Western blot
# Conditions: reference: USP4 wild type; sites S445
substance,measurement,value
USP4 (from UniProt Q13107) USP4-S445A,binding against the reference,weaker
